# Data: the DeepSol protein solubility set
# Experiment: soluble on expression in E. coli; label from the status in PepcDB or PDB records
row,Sequence,soluble on expression in E. coli
1,GPGSMLRLSLRRWCAAAASGSSTSTAHGSPPATTLPDFYGKSFSVSPRAWAQITRKNSEEGFTNDARYLRLAIDSGGCHGYVYKFSFEKNDEFSCEGDVAIAEVDAVSPSDEAFTGAQPSPRVVVDTLSASKLANATLDYHSELKGSAFVVVGNELVDESCACAMSFSMRKTTRQSVASSSSARGASSGDGGGHGGSGAAAPPAGSSLAANARPISRRSTTRATS,soluble
2,GPGSMLRNTDVRLFSTFALNPETSVAPHGPPRGLVNRYVSMGLPPWAAWCNKVNRYSLYRMSGVTQRSFLPKPPQEMDVIWLNERVRERVRTSRQVQNVYRQLKYPYVKTGIHYSDVLDHWVQVPMVEAAMFEVEKDGGFDNFILKRSGPELRSTYGERIRRHILVRQKEIQKNFVLQKQAQMLVESMEKEILPMEDGKKVEEVLEKYGIDKEQLLRDIARAAVAKKQQLASAVPQPSHVEVSTN,not soluble
3,GPGSMLRRLFTRMAPRAKNHEELMKMLREGSQVGKMAASEESGVTFRDIRTVPIGESNEAKRRRLLYQSTYRGMVEMDIILGAFARQNIETLSAPQLEEYDAVLRHFDNDLYKWLVMDVEAPAEVAQIPVFQSLHSFVRDEREKLLKCAS,soluble
4,GPGSMMRTQQVDPDLTPVLAALASRINRDLPTVVELLCRRLVVQWNRAYLRKDWRFVENASRYLGWLFLLNVVEVDIIYQLLLKHLTSEKRREEDIDQAAKLFRETFKVMSLKERRSFHEQILTPFRDLLAMDDEELRLSTRSQAVLESCLKEVQEWERRKEREEAIPDYLVLFDLEMQQRHEMDLDEKYPTEDALDRYAFDAEYDTHEEQYEAVRKAILGEDWEVELLQQV,not soluble
5,GPGSMMVLDIQLFRDETGANIIRESQRRRFADPDIVDAIIEADKKWRRTQFLTEASKKLINICSKAVGAKKKAKEADGDTSEIPPQVKEAYENGTLKGEQVEQLCVLQLKQLSKDLSDQVAGLAKEAQQLEEERDKLMLNVGNILHESVPIAQDEETGNTVVRTFGNTTKRAKLNHVSIMERLGMMDTSKAVTSMAGGRSYVLKGGLVQLQVALVSYSLDFLVKRGYTPFYPPFFLNRDVMGEVAQLSQFDEELYQVSGDGDKKYLIATSEMPIAAYHRGRWFTELKEPLKYAGMSTCFRKEAGAHGRDTLGIFRVHQFDKIEQFVVCSPRQEESWRHLEDMITTSEEFNKSLGLPYRVVNICSGALNNAAAKKYDLEAWFPASGAFRELVSCSNCTDYQSQSVNCRYGPNLRGTAAQNVKEYCHMLNGTLCAITRTMCCICENYQTEEGVVIPDVLRPYMMGIEMIRFENNAQAEGTTPDKGE,soluble
6,GPGSMNRDPDNGLWYATLRGRTLLGEEVQLPESGIVGMTTVTTSKPSCSPFPTPASLSTFPPQIAEVGELEMVDEVFIEACAPRYVVWDHGRAPSPAASLLQWMMLAEVLHGPSKWAQGEGDTSL,not soluble
7,GPGSMPLMSADGSGELPPVMLHRYPVTLGLPTADPYALAIECMLRIVGAHYKKRDGGLPVTLEVPVDGRNKPAMKRHEGLTSCLQLIESATHQDAEVITSALEPEALCVRLTAEVVLIPAFVYITHSDAGILRNAIQKAVEPKVASMWQRFRGSYSRHVVQQTSFCRSYKNMGEAIENVERCLRAIEAICSINTAGNGMFILGTERPCSADALIYAAASSFFHADFASRQASGDIIAMQQRLREGCPTLLTYVERLRGLYFEDYSAFYHLRAPTCGMEGEATQKAAEETFVRGRWKVLAFTGVFSITYFLVANIDVFSAVLLHYLEDDGEEEFLEDEE,not soluble
8,GPGSMPSPFQQTLLARAYHYVHPKTGRPIRQFRRYGDPRYINNEAALIRGQWGLITADFGMVTQSQMENARLAILRRLPRGSFTLTMHTDYEEFPVVKKSPESRMGAGKANIHHFAFKFTTGVPLFEIMPISARRLNQAEAEGIFLAGRPFIPLQTVVVPQGRVDEYHVFK,not soluble
9,GPGSMQEIIDTVNRYTLRSAAFRDKPTPGLAARQFLCSLLLHRKLDSIRLSSIARYMFSTEALIAVSRDGIQTISCEGNTLWPICTIPNGLTSEISGVAVTPEGTLVCSSNGICYLEGENLRVAEDCASSSYAQNVLCISCTPDGRYIATGGGTATVTVWTSDLKPLHHFAGHTDWVRFVKFARGRSPALQLFSTGDDGVICQWDVLAGSLISRVDYSLGESIQLFEVSYYSGLMAISSGTSLIALYCPQSDNTTRAVGEDVLRLQPMALITGAHEYTPTAGKFTDDSQWLASASEDETIALTYVLDPQTCFVCKKFVTRRRCFSFMNIFNSICILAAPPVSSVIVIAACSSDGTVVQWVVDPRTNRASYTKKLQLHLGSFLGMDLIPGDDLNHLL,not soluble
10,GPGSMSAEAVADLERRAAAAETAIGELSLRLQTMGSSVGAGIEPRLRELLKLMHEDRAEFEAVRAQRDELKEENERLKIQVAKHEYRIKHLLRTIEEISPEENS,soluble
11,GPGSMTAGAPTTVAGEYPRPSASLHPSVDCSSLNRVPTATAAAPPPPSPRLSGYVMPSVVNPYSQGASQQPAMAHVSEPVNPASYLQQANAMGRWSYQQPPLQQPQYPTLDPVATRVAAIDAEEAAMAAEEMTMRAKLAELQVARKQQEEEQLYLSHGWAQMLEKEERYYTEPVIDLRPDIMAREQQCAMLHNHLQQVEAQAQHAQSQLQGTEYILRDAESFEQERRRVQDAFQEVERRRRECVARAERYFDVEAKRVVEGNKVIRKLDSQLREMTQRGPLAQLQDGNRHPFHRS,not soluble
12,GPGSMTDYIRDGQAIYDRSFAIIRAEADLRHIPADLEKLAVRVIHACGMVDVANDLAFSEGAGKAGRNALLAGAPILCDARMVAEGITRSRLPADNRVIYTLSDPSVPELAKKIGNTRSAAALDLWLPHIEGSIVAIGNAPTALFRLFELLDAGAPKPALIIGMPVGFVGAAESKDELAANSRGVPYVIVRGRRGGSAMTAAAVNALASERE,soluble
13,GPGSMTSPAQAQVHSAPSRHAHTSILSQQMLSTPAGHPVSQPDTSQAAPDAPVWRPTTVPWKPVDTQQSACSALPAKTDDAIAAHSLQWERDAAVGNPNDESGRVVSQAFAFPRWMGPPALTSTATSREEGDSPTATVPSMEERWSTFQRLAQASEATFRSMSEATARQHADVTAHQKEIAAYQESQRQLTLQQQQRLDSLTRECAQLRQTEASTKEVVAHQVERLVALESELQTTRVQLSEIRLAQAQCVEERKRLQQACKMHEVHTSELQASLQFADEVVRSMRQTVAACEREKNEALMQQYSNFESYRNNLIAAYDKRAAEARDEFAKRVESLQAGMLETVAKREEQLKASWEETATRMRHEYDELVRLGQQRRAAMDTELRERKEQLERDKEFMRVQQREEADMMEQRFRAREETLLDDIARRERELREREAVLRAAQAQQEVDVQRRLQAREAELRAAHDAALKRMADQAAAEREKLSENFMERLQQLSNAHMQQERELERMHREKEREMAQRYRLSGIDGGDRGEVRDRRATEYALASPSMAKEALLKKFETVEQRQRERSDKLRSAFSAQENELQPPL,soluble
14,GPGSMTTAASEGIVSREQLQMMLHVILHSTDNNERRNVEKSVVQLLTTPSTLTLLMVMLRDVQGSSPGVRQLAAVLLRKKVLSLWRTIPSESRGDFKGALLEQLGCEPVKAVRLALAHLVTRVAKADAMDEDGGWPELNYAIRAAVIDPRAEMRELAMVLAYSVAEVMSEADTHCLPVVEAVLQGMLDSEDAVQRSAVKAVGTLFVFMRGQTKVWEQLLQQLVPQCLALLTKCGTEETKTNLCVDVLDLLEQLVEDLSVKKHGALLRSVALEVLSVMTNGAIQPRVRQSCAEVLASLVNQKPKFVSTTVLEPLVSACVQVMSEDNAISLPEVAHTEGMENCDDSQSDENDAADMLHVDPPCLFAGRLLSTIATKVAAKSFTGALLPLISPVAQSPQAVGPTGAKSFDPRSCLFGRG,not soluble
15,GPGSMTTPNFELYGYFRSSCSGRLRIAFHLKSIPYTRHPVNLLKGEQHSDTYKSLNPTNTVPLLVVSNINNTVSPSSASFSIGQSLAALEYLEEALPTNARPLLPPISNPVARAHVRTICNIIACDVQPVTNLKIQKKVKALDGDPTVWSRDLATQGFGAVEKLLELSAGRFCVGDEITLADVCLVPAVWAAERVGMDLARFPITKRVFEEMLKEEAVQKAHWQKQEDTPEDLRA,soluble
